Source: paper PMC8205012, “Novel CD123 polyaptamer hydrogel edited by Cas9/sgRNA for AML-targeted therapy”

Target: Cas9 (UniProt Q99ZW2 1-1368)
Assay: flow cytometry, Cas9 beads; Cell binding: 1e5 cells, 50 nM (flow) or 5 uM (confocal) FAM-DNA, 37 C, 30 min, PBS wash; bead assays: beads washed in PBS, binding buffer and temperature not stated
Details: protein: commercial; label: FAM

Sequence of Cas9 (Q99ZW2 whole entry): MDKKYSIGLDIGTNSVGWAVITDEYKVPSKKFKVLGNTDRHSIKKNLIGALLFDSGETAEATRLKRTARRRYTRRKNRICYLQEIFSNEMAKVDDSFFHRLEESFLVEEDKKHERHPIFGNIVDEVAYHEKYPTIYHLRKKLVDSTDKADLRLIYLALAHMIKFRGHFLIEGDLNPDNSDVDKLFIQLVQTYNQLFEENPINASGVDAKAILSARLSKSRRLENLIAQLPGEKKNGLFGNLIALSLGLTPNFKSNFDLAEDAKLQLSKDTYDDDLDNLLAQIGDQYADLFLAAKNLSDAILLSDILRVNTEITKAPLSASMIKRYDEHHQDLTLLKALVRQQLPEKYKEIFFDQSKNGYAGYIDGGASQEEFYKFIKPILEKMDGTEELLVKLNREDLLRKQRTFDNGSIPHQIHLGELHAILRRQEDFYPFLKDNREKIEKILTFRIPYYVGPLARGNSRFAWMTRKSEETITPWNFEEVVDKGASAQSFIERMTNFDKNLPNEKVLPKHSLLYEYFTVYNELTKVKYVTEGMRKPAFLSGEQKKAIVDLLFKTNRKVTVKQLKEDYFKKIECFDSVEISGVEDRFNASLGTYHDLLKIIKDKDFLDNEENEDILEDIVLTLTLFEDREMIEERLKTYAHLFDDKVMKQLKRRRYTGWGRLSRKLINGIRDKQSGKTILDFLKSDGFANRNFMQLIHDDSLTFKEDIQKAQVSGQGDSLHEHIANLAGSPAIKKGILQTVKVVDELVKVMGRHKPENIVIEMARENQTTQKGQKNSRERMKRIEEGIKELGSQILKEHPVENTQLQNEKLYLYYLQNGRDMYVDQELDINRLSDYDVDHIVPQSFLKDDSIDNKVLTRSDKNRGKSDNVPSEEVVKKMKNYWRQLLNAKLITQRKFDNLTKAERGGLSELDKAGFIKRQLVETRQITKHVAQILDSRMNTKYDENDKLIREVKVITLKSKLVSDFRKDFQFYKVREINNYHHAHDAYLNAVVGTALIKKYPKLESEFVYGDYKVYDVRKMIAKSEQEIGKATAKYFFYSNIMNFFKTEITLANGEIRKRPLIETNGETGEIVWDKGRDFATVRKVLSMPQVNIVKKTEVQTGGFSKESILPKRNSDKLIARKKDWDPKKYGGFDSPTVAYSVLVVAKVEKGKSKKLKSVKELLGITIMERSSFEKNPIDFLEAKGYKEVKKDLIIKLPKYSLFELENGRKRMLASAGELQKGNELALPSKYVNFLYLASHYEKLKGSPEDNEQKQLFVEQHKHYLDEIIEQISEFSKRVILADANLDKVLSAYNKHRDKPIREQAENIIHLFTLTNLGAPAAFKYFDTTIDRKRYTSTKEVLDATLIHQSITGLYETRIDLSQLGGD

B1: sgRNA (structured_RNA)
RNA: GGUGGUGCAGAUGAACUUCAGUUUUAGAGCUAGAAAUAGCAAGUUAAAAUAAGGCUAGUCCGUUAUCAACUUGAAAAAGUGGCACCGAGUCGGUGCUUUU
B1: binds.
